Consider one molecule from paper PMC4005659, “TcaR–ssDNA complex crystal structure reveals new DNA binding mechanism of the MarR family proteins”.

The data set concerns the target TcaR (Staphylococcus epidermidis RP62A (ATCC …, UniProt A0A0H2VJZ8 1-151)). The data set can be described thus: X-ray crystallography; 1:1 TcaR dimer:ssDNA; 40% ethylene glycol, 0.1 M Tris pH 7.0; 3.6 A; EMSA: 20 mM Tris-HCl pH 8.0, 150 mM KCl, 0.1 mM MgCl2, 0.05 mM EDTA, 12.5% glycerol, 0.1 mM DTT, 1 mg/ml BSA, 15 min, room temperature; ssDNA 12 uM, TcaR 2-24 uM. As to conditions: protein: recombinant; tags: N-terminal His6; chain copies: 2; single strand. (A gel shift assay detects complexes by their altered migration in electrophoresis.)

B1: 17-mer GC-rich ssDNA (ssDNA)
DNA: CGCAGCGCGCAGCCCTA
For B1, the binding result was “binds”.
